One data set concerns the target T1, MBP-TraR R206Q, P33905.
T1 chain: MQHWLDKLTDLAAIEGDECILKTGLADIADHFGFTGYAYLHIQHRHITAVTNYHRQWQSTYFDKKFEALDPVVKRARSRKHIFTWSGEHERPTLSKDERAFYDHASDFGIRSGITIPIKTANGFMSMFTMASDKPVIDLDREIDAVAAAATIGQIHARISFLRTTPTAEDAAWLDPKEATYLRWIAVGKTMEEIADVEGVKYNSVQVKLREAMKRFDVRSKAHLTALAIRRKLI
The experiment in a line: pull-down.

In another data set the target is T2, MBP-TraR A222S, P33905.
T2 chain: T1 chain with Q206R, A222S
The experiment in a line: pull-down.

Where a chain is given by its changes, count along the chain named.

B1: native TraR (wild type) (protein)
chain: T1 chain with Q206R
Regarding B1, the heterodimer formation (% of wild type) (% of wild type) in the data set with MBP-TraR R206Q, P33905 amounted to 71; in the data set with MBP-TraR A222S, P33905, 53.

(Values after publication PMC2739136.)
